According to publication PMC4771647, “Improving the thermostability and stress tolerance of an archaeon hyperthermophilic superoxide dismutase by fusion with a unique N-terminal domain” (SpringerPlus, 2016):
Where “and” joins values, the source holds several entries; their conditions need not be identical. Equal entries are not always repeated.

How the values were obtained:
[1] = molecular target: rSODSs, fusion of the N-terminal domain (NTD) of SOD NG2215 of Geobacillus thermodenitrificans NG80-2 with SODSs (Geobacillus thermodenitrificans NG80-2 | Sulfolobus solfataricus); test: AUC; sedimentation velocity, interference data, 36,000 rpm, An-60 Ti rotor, 4 °C; 50 mM potassium phosphate buffer plus 150 mM NaCl, pH 8.0; continuous c(s) distribution (SEDFIT)
[2] = molecular target: the molecule itself; test: as above

In the case of “rSODSs, fusion of the N-terminal domain (NTD) of SOD NG2215 of Geobacillus thermodenitrificans NG80-2 with SODSs (enzyme)”, the stoichiometry N [1] is reported as 4 and 2.

B1: superoxide dismutase from the archaeon Sulfolobus solfataricus (SODSs) (enzyme, UniProt P80857 1-211, looked up)
chain: MTLQIQFKKYELPPLPYKIDALEPYISKDIIDVHYNGHHKGYVNGANSLLERLEKVVKGDLQTGQYDIQGIIRGLTFNINGHKLHALYWENMAPSGKGGGKPGGALADLINKQYGSFDRFKQVFTETANSLPGTGWAVLYYDTESGNLQIMTFENHFQNHIAEIPIILILDEFEHAYYLQYKNKRADYVNAWWNVVNWDAAEKKLQKYLTK
notes: Fe superoxide dismutase (SODSs) of Sulfolobus solfataricus; gene synthesised into pET-28a (pET-SODSs); expected size 24.2 kDa; Tetramer by analytical ultracentrifugation (major peak), with small quantities of dimers; also called Fe-SODSs; native SODSs
In the case of B1, the “stoichiometry N” value [2] is reported as 4 and 2.
